# Assays:
# Format in all cases: biochemical
# PKC-zeta = molecular target: T1, PKC-zeta (Homo sapiens, UniProt Q05513); assay: In vitro kinase assay: peptide phosphorylation by PKC-zeta
# T1 construct: purchased Calbiochem
# T1 sequence (Q05513 1-592): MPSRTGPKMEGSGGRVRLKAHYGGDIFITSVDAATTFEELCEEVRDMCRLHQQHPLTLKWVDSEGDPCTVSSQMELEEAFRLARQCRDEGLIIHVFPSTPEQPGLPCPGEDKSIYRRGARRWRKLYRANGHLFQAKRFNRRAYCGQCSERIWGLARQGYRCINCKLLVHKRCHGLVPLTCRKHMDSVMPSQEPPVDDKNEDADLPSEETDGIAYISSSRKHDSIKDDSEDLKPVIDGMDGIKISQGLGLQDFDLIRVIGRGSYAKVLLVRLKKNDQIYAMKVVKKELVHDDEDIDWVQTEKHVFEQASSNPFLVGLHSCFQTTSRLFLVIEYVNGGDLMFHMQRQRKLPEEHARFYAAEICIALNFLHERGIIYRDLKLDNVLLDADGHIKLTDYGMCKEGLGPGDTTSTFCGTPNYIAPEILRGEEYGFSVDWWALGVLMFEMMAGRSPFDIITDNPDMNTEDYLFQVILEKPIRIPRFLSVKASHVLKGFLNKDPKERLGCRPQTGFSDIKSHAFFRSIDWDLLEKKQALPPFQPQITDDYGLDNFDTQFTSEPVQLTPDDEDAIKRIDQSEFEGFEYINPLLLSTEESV
# PKC = assay: In vitro phosphorylation by PKC (average of isoforms alpha, epsilon, delta, theta); settings: average over PKC-theta, -epsilon and -alpha at 10 and 1 uM peptide, relative to best substrate
# PKC-alpha = molecular target: T2, PKC-alpha (Homo sapiens, UniProt P17252); assay: In vitro kinase assay: peptide phosphorylation by PKC-alpha
# T2 construct: purchased Calbiochem
# How it was run: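 Purified active human PKC-alpha, 5-20 ng per well, phosphorylated biotinylated peptides in duplicate wells with 100 μM ATP including 1 uCi/well of ^32P-gamma ATP. The buffer was 100 mM HEPES, 0.05% Triton-X100, 1 mM CaCl2, 20 mM MgCl2, 0.2 mg/ml phosphatidyl serine and PMA 100 ng/ml. Reactions ran at 30° C., usually for 10 minutes, keeping stoichiometry under 5%. They were stopped with ATP/EDTA, captured on streptavidin plates, washed, and counted by scintillation.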
Substance,phosphorylation by PKC zeta (PKC-zeta; peptide concentration 1 uM),phosphorylation by PKC zeta (PKC-zeta; peptide concentration 10 uM),"average (phosphorylation by PKC-theta, -delta, -epsilon, -alpha) (PKC)",phosphorylation by PKC alpha (PKC-alpha; peptide concentration 1 uM),phosphorylation by PKC alpha (PKC-alpha; peptide concentration 10 uM)
147 (RDIRQSPKRGFLRSASLGRR) [compound 147],28,34,26,13,16
154 (KKFFTQGWAGWRKKTSFRKP) [compound 154],27,23,22,16,12
155 (RWDKRRWRKIPKRPGSVHRT) [compound 155],19,6,21,10,12
156 (SAQITIPKDGQKRKKSLRKK) [compound 156],15,44,20,9,11
157 (PSPSNETPKKKKKRFSFKKS) [compound 157],3,6,20,10,11
158 (VQMTWSYPDEKNKRASVRRR) [compound 158],11,72,19,16,11
159 (LYARLARAYRRSQRASFKRA) [compound 159],25,41,19,21,19
160 (PFEVVWYKDKRQLRSSKKYK) [compound 160],15,57,18,9,7
161 (KYKAFIRIPIPTRRHTFRRQ) [compound 161],15,9,18,22,8
162 (KKKFSFKKPFKLSGLSFKRN) [compound 162],7,4,17,17,19
163 (PPRTPGWHQLQPRRVSFRGE) [compound 163],7,26,16,30,10
164 (TEGKMARVAWKGKRRSKARK) [compound 164],3,2,16,6,6
165 (TEEKSKKRKKKHRKNSRKHK) [compound 165],1,2,16,15,10
166 (MAQIERGEARIQRRISIKKA) [compound 166],2,9,15,22,7
167 (GLPAPGEDKSIYRRGSRRWR) [compound 167],5,37,15,27,7
